This is an account of results in article PMC9124243.

Assay [1] deals with Mycobacterium tuberculosis DnaK, wild-type, full-length (M. tuberculosis) (UniProt P9WMJ9).
For assay [2] the target is unchanged. The source holds these as a separate data set.

Read-outs that look alike come from different tables or passages of the source.

As for Pz-Val-Val-Pro-Leu-OH (2) (peptide), the IC50 in DnaK-DnaJ2-GrpE ATPase dose-response assay in assay [1] came to 192 µM.
With “Pz-Val-Val-Pro-photoLeu-OMe (7) (peptide)”, the IC50 in DnaK-DnaJ2-GrpE ATPase dose-response assay in assay [2] came to 52.5 µM.
